assay: yeast display, Sf9 membrane polyspecificity reagent, FACS + sequencing; frameworks hold sequencing errors
How it was run: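 Galactose-induced (36–48 hours) yeast carrying a synthetic nanobody display library were exposed to 10% biotinylated, detergent-solubilized Sf9 membrane reagent at 4 °C for 1 hour. FACS followed streptavidin microbead enrichment, using low and high (top ~1%) gates for expression (anti-HA) and reagent binding (streptavidin). Colony PCR, MiSeq 2 × 250 sequencing and CDR-length filtering followed. Labels for polyreactivity reflect the gate of origin.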

| Sequence | polyreactivity (PSR sort gate) |
| --- | --- |
| QVQLVESGGGLVQAGGSLRLSCAASGRIYWNTKGWYRQAPGKERELVASISTGGGRTYYADSVKGRFTISRDNAKNTVYLQMNSLKPEDTAVYYCAARRGAGYSRFNYWGQGTQVTVSS | high polyreactivity |
| QVQLVESGGGLVQAGGSLRLSCAASGRIYYSNVMGWYRQAPGTERELVAAISGRTGGTYYADSVKGRFTISRDNAKNTVYLQMNSLKPEDTAVYYCAARVIYYYGYCTYDYWGQGTQVTVSS | low polyreactivity |
| QVQLVESGGGLVQAGGSLRLSCAASGRIYYTYAMGWYRQAPGKERELVAAIRRGGSTNYADSVKGRFTISRDNAKNTVYLQMNSLKPEDTAVYYCAADVYRASFWYGYWGQGTQVTVSS | low polyreactivity |
| QVQLVESGGGLVQAGGSLRLSCAASGRLFSYNAMGWYSQAPGKERELVAGITYGSTYYADSVKGRFRISRDNAKNTVYLQMNSLKPEDTAVYYSAADQSYTSVHGYRSDTLMDYWGQGTQGTVSS | low polyreactivity |
| QVQLVESGGGLVQAGGSLRLSCAASGRLFTIYAMGGYTQAPGKERELVATISRRGGSTYYADSVKGRFTISRDNAKNTVYLQMNSLKPEDTAVYYCAKRQRSKAAVAGYVDATGEMDYWGQGTQVTVSS | high polyreactivity |
| QVQLVESGGGLVQAGGSLRLSCAASGRLFTYYVMGWYRQAPGKERELVAAISYGGGSTYYADSVKGRFTISRDNAKNTVYLQMNSLKPEDTAVYYCAAEDGYRKMDYWGQGTQVTVSS | low polyreactivity |
| QVQLVESGGGLVQAGGSLRLSCAASGRLFVYNAMGWYRQAPGKERELVAAISWRGGSTYYADSVKGRFTISRDNAKNTVYLQMYSLKPEDTAVYDCAAQRTARQFDYWGQGTQVTVSS | high polyreactivity |
| QVQLVESGGGLVQAGGSLRLSCAASGRNFARYVMGWYSQAPGKERELVASISNSGGSTYYADSVKGRFTISRDNAKNTVYLQMNSLKPEDTAVYYCARRYYYYTSYRYDYWGQGTQVTVSS | high polyreactivity |
| QVQLVESGGGLVQAGGSLRLSCAASGRNFDDYAMGWYRQAPGKERELVAAISDSGGTTYYADSVKGRFTISRDNAKNTVYLQMNSLKPEDTAVYYCAKRYYGPHYWGQGTQVTVSS | low polyreactivity |
| QVQLVESGGGLVQAGGSLRLSCAASGRNFEKNAMGWSRQAPGKERELVASIDFRGGRTYADSVKGRFTISRDNAKNTVYLQMISLKPEDTAVYYCAKRQVGRKYVRYEYDSWGHGTQVTVSS | low polyreactivity |
| QVQLVESGGGLVQAGGSLRLSCAASGRNFGINAMVWFRPAPGKERELVAAISRSGGRTYYADSVKGRFTISRDNAKNTVYLQMISLKPEDTAVYYCAKVPTYWYYRYYYWGQGTEVTVSS | high polyreactivity |
| QVQLVESGGGLVQAGGSLRLSCAASGRNFGVYTMGWYRQAPGKERELVAAITSGGNTNYADSVKGRFTISRDNAKNNVYLQMNCLKPEDTAVYYCAARYVGNFYYPGHNYWGQVTQVTVSS | low polyreactivity |
| QVQLVESGGGLVQAGGSLRLSCAASGRNFGYYTMGWYRQAPGKERELVARINYIGSSTYYADSVKGRFTISRDNAKNTVFLLMNSLKPEDTAVYYCAAETYYFGYGYWGQGTQVTVSS | high polyreactivity |
| QVQLVESGGGLVQAGGSLRLSCAASGRNFKYNAMGSYRTAPGKERELVAAISSGGSTKYADSVKGRFTISRDNATKTVYLQMNSLKPEDTAVYYCNAVYTPYRRSFYYWGQGTQVTVSS | high polyreactivity |
| QVQLVESGGGLVQAGGSLRLSCAASGRNFRHYAMGWDRQAPGKERELVAAIRWSGGSTYYADSVKGRFTISRDNAKNTVYLQMNSLKPEETAVYYCATRDAVGHRPSGPYQLYDYWGQGTQVTVSS | low polyreactivity |
| QVQLVESGGGLVQAGGSLRLSCAASGRNFRKYAMGWYRQAPGKERELVAAITSSGGSTYYADSVKGRFTISRDNAKNTVYLQMNSLKPVDTAVYYCAAQKRGSPGYRRDYWGQGTQVTVSS | high polyreactivity |
| QVQLVESGGGLVQAGGSLRLSCAASGRNFRYYAMGWYRPAPGKERELVAAISGSGGSTYYADSVKGRFTISRDNAKNTVYLQMNSLKPEDTAVYYCNARYRIPSGEGDHWGQGTQVTVSS | low polyreactivity |
| QVQLVESGGGLVQAGGSLRLSCAASGRNFSYYVMGWYRPAHGKERELVAAITSGGSTNYAHSVKGRFTISRDNAKNTVYLQMNSLKPEDTAVYYCNRAYTYINRLYGYWGQGTQVTVST | high polyreactivity |
| QVQLVESGGGLVQAGGSLRLSCAASGRNFVAYTMGWYRQAPGKERELVAAISTNGGRTYYADSVKGRFTISRDNAKITVYLQMNSLKPEDTAVYYCAAYRGPRADYYWGQGTQVTVSS | high polyreactivity |
| QVQLVESGGGLVQAGGSLRLSCAASGRNFVNYAMGWYRQAPGKERELVAVISRSGGGTNYADSVKGRYTISRDNAKNTVYLQMNSLKPEDTAVYYCAASRKYGYGYWGQGTQVTVSS | high polyreactivity |
| QVQLVESGGGLVQAGGSLRLSCAASGRNFYYYAMGWYRQAPGKERELVATITGSGGNTYYADSVKGRFTISRDNAKNTVYLQMNSLKPEDTAVYFCNARLARGYWTPGKERPMEYWGQGTQVTVSS | low polyreactivity |
| QVQLVESGGGLVQAGGSLRLSCAASGRNIQGYAMGWYRQAPGKESELVAAITLSGGSTYYADSVKGRFTISRDNAKNTVYLQMNSLKPEVTAVYYCNAYYPDEPSLYDYWGQGTQVTVSS | low polyreactivity |

| Sequence | polyreactivity (PSR sort gate) |
| --- | --- |
| QVQLVESGGGLVQAGGSLRLSCAASGRNIRRYTMGLYIQAPGKEREFVAAITWSGSSTNYADSVKGRFTISRDNAKNTVYLQMNSLKPEDTAVYYCAAENRRRRDDYWGQGTQVTVSS | high polyreactivity |
| QVQLVESGGGLVQAGGSLRLSCAASGRNISYNAMGGYRQAPGKERELVAAISWGGGSTYYADSVMGRFTISRDNAKNTVFLHMNSLKQDDTAVYYCAKGWYRIKRNDYWGQGTQVTVSS | low polyreactivity |
| QVQLVESGGGLVQAGGSLRLSCAASGRNYVPYAMGWYRQAPGKERELVAALSNSGGSTYYADSVKGRFTISRDNAKNTGYLQRNSLKPEYTAVYFCAPDGRYAYGYNHWGQGTQVTGSS | low polyreactivity |
| QVQLVESGGGLVQAGGSLRLSCAASGRSFCTYAMGSYRQAPGKERELVAAITSGGSTNYADSVKGRFTISRDNAKNTVYLQMNSLKPEDTAVYYCAAVEYLRESDYWGQCTQVTVSS | low polyreactivity |
| QVQLVESGGGLVQAGGSLRLSCAASGRSFGHYAMGWYRQAPGKERELVAAITTGGNTYYADSVKGRFTISRDNAKNTVYLQMNSLKPEDTAVYYCAKRGYPYKYKYWQVYAAYDYWGQGTQVTVSS | low polyreactivity |
| QVQLVESGGGLVQAGGSLRLSCAASGRSFGKNAMGWYRQAPGKERELVAAISTSGGRTYYADSVKGRFTISRDNAKITFFLQMNSLKPEDTAVYYCNAKGWTRPPGYDYWGQGTQVTVSS | high polyreactivity |
| QVQLVESGGGLVQAGGSLRLSCAASGRSFGVYAMGWYRQAPGKERELVAVISSGGSTTYADSVKGRFTISRDNAKNTVYLQMNSLKPEDTAVYYCAAVSYRRHFGPYNYWGQGTQVTVSS | low polyreactivity |
| QVQLVESGGGLVQAGGSLRLSCAASGRSFKRYDMGGYIQAPGKERELVAAITGTGGSTYYADSVKGRFTISRDNAKNTVYLQMNSLKPEDPADYYCAARLYNTYSGFAFGYWGQGTQVTVSS | high polyreactivity |
| QVQLVESGGGLVQAGGSLRLSCAASGRSFSYAMGWYRQAPGKERELVAAISYGGGGTYYADSVKGRFTISRDNAKNTVYLQMNSLKPEDTAVYYCNARQYRPWYPPYGYDYWGQGTQVTVSS | low polyreactivity |
| QVQLVESGGGLVQAGGSLRLSCAASGRSFYTNVMGWYRQAPGKERELVAAISSAGTTYYADSVKGRFTISRDNAKNTVYLQMNSLKPVDSEVYYCAADQVAYYGFDYWGQGTQVTVST | low polyreactivity |
| QVQLVESGGGLVQAGGSLRLSCAASGRSLRYYAMGWYRQAPGKERELVAVITRDGSTYYADSVKGRFTIPRDNAKNTVYLQMNSLKPEDTAVSYCVYGLTYRSFYYWGQGTQVTVSS | high polyreactivity |
| QVQLVESGGGLVQAGGSLRLSCAASGRSNAMGWYRQAPGKERELVAAISTNGGSTYYADSVKGRFTISRDNAKNTVYLQMNSLKPEDTAVYYCAKRLGRDYTFGYWGQGTQVTVSS | high polyreactivity |
| QVQLVESGGGLVQAGGSLRLSCAASGRSSTRNAMGWYRQAPGKERELVAAITRSGGGTYYADSVKGRFTISRDNAKNTVYLQMNSLKPEDTAVYYCAADQLSPSDGYEYWGQGTQVTVSS | low polyreactivity |
| QVQLVESGGGLVQAGGSLRLSCAASGRTCFPYAMGWYRQAPGKERELVDAISSGGRTNYADSVKGRFTISRDNAKNTVYLQMNSLKPEDTAVYYCAARGYLRLYSYDYWGQGTQVTVSS | high polyreactivity |
| QVQLVESGGGLVQAGGSLRLSCAASGRTCGYYAMGWYRQAPGKEREFVAVITWSGDSTYYADSVKGRFTISRDNAKNTVYLQMNSLKPEDTAVYNGNADSGNAGTAYDDYDYSGQGTQVTVSS | low polyreactivity |
| QVQLVESGGGLVQAGGSLRLSCAASGRTCPRYGLGWYRQAPGKERELVATIRTGGRTNYADSVKGRFTISRDNAKNTVYLQMNSLKPEDTAVYYCATDSSKHPYSPTLLKFDYWGQGTQVTVSS | low polyreactivity |
| QVQLVESGGGLVQAGGSLRLSCAASGRTDVAKGMGRYRQAPGKEKEMVAAINDGDVTYYADSVKGRFTISRDNAKNTVYLQMNSLKPEDTAVYYCAADIIYGYEVYTYTSDYWGQGTQVTVSS | low polyreactivity |
| QVQLVESGGGLVQAGGSLRLSCAASGRTFAAYAMGWYRPAPGKERELVAGITSSSVRTYYADSVKGRFTISRDNAKNTVYLQMNSLKPEDTAVYYRTARADGSSSRWRPYSKFYYWGQGTQVTVSS | low polyreactivity |
| QVQLVESGGGLVQAGGSLRLSCAASGRTFADYAMGWNRQAPGKEREFVAAITYSGGSTYYADSVKGRFTISRDNAKNTVYLQMNSLKPEDTAVYYCNARPGSSYWYDAQWGEYGYWGQGTQVTVSS | high polyreactivity |
| QVQLVESGGGLVQAGGSLRLSCAASGRTFAEYAMGWYRQAPGKERELVAAISKRGGSTYYADSVKGRFTISRDNAKNTVYLQMNSLKPEDTAVYYCNKVNRVPSYGHEVGYWGQGTQVTVSS | high polyreactivity |
| QVQLVESGGGLVQAGGSLRLSCAASGRTFAFNAMGWCRQAPGKDRELVAAISQGADSTYYADSVKGRFTISRDNAKNPVDLQMNSLKPEDTAVYYCAAEAQYNFYSYDYWGQGTQVTVSS | low polyreactivity |
